Data taken from patent US20250340633A1 (DIATHEVA S R L, published 2025).

T1: CEACAM1 antigen (Diatheva) (UniProt P13688 35-428, limits assumed)
T1 construct: Purchased antigen; also called CEA Cell Adhesion Molecule 1
T1 sequence (looked up): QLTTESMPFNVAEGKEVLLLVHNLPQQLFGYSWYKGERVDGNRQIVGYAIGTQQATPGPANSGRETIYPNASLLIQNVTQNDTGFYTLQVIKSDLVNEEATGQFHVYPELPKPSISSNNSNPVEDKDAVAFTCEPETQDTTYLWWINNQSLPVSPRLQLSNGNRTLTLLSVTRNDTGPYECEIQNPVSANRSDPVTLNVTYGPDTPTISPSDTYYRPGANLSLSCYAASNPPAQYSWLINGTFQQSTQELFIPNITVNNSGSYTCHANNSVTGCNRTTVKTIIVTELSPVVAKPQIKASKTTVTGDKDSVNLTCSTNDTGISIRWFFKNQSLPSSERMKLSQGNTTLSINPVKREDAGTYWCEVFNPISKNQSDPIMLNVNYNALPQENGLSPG

B1: scFvDIATHIS-1 (scFv, V domains shown)
VH: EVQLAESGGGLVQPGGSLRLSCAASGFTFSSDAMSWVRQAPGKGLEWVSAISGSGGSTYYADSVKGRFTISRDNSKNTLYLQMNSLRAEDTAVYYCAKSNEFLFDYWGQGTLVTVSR
VL: SELTQDPAVSVALGQTVRITCQGDSLRSSYASWYRQRPGQAPVPVIYGKNNRPSGIPDRFSGSSSGNTASLTITGAQAEDEADYYCNSSYAWLPYVVFGGGTKLTVLG
notes: Single-chain fragment described in WO2011160859A1; Detection with an anti-His6 antibody implies a His6 tag
B2: IgG4 (S228P) anti-CEACAM1 mAb (antibody, not shown: large carriers)
heavy: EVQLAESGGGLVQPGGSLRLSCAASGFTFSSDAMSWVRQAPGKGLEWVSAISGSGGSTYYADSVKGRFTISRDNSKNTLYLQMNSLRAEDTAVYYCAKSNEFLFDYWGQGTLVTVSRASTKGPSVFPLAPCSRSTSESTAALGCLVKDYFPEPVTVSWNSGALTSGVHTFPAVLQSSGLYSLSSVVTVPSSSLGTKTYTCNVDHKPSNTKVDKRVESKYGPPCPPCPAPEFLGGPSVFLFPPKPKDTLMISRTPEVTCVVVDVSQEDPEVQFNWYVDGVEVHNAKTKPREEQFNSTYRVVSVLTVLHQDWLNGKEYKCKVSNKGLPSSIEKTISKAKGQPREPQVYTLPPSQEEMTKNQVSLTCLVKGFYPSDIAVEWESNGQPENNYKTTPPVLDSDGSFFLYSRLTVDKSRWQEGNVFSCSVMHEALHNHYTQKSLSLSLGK
light: B1 VL
notes: also called IgG4 clone 2
B3: DIA-12.3 IgG1 (antibody)
heavy: not shown
light: SELTQDPAVSVALGQTVRITCQGDSLRSSYASWYRQRPGQAPVPVIYGKNNRPSGIPDRFSGSSSGNTASLTITGAQAEDEADYYCNSSYAWLPYVVFGGGTKLTVLGGQPKANPTVTLFPPSSEELQANKATLVCLISDFYPGAVTVAWKADGSPVKAGVETTKPSKQSNNKYAASSYLSLTPEQWKSHRSYSCQVTHEGSTVEKTVAPTECS
notes: The preparation is named under assay in each row; also called IgG1 anti-CEACAM1 mAb; IgG1 clone 12

Experiments:
[1] = molecular target: T1, CEACAM1 antigen (Diatheva); test: ELISA titration on coated CEACAM1; detection with anti-His6 and anti-mouse HRP
Experimental: 96 wells microtiter plates (MAXISORB NUNC) were coated with 100 μl/well of CEACAM1 antigen (Diatheva) solution 1 μg/ml diluted in PBS pH 7.3 and incubated overnight (ON) at 37° C. Plates were washed five times with PBS added with 0.05% (v/v) Tween 20 pH 7.3 (PBST) (the same washing procedure was repeated after each incubation step during the assays) and then blocked with 1% (w/v) BSA dissolved in PBS (150 μl/well) and maintained at 37° C. for 60 min. After washing, serial dilutions of IgG1 or IgG4 in PBS containing 2% (w/v) not-fat dry milk (PBSM) were added to the plate (100 μl/well) and incubated for 90 min at 37° C. […] Finally, the detection was performed after addition of 2,2′-azino-bis(3-ethylbenzthiazoline-6-sulphonic acid) (ABTS; Roche, 10102946001) as substrate. The absorbance values were read by a microplate reader (Bio-Rad Laboratories) at 405 nm after 45 min. In FIG. 4 are reported the results obtained with IgG1 (black line) and IgG4 (grey line) antibodies purified after transient expression in HEK293T cells. The absorbance of the mock sample is shown by the dotted line. The ELISA assay highlighted a higher affinity for the CEACAM1 antigen of the antibody belonging to the IgG1 subclass compared to the same antibody with the IgG4 (S228P) constant region. […]

[2] = molecular target: T1, CEACAM1 antigen (Diatheva); test: ELISA titration on coated CEACAM1; EC50 of the scFv against that of IgG4 clone 2
[3] = molecular target: T1, CEACAM1 antigen (Diatheva); test: ELISA titration on coated CEACAM1; EC50 of the scFv against that of IgG1 clone 12
[4] = molecular target: T1, CEACAM1 antigen (Diatheva); test: ELISA titration on coated CEACAM1; antibody from stable clone 2
Experimental: 96 wells microtiter plates (MAXISORB NUNC) were coated with 100 μl/well of CEACAM1 antigen (Diatheva) solution 1 μg/ml diluted in PBS pH 7.3 and incubated overnight (ON) at 37° C. Plates were washed five times with PBS added with 0.05% (v/v) Tween 20 pH 7.3 (PBST) (the same washing procedure was repeated after each incubation step during the assays) and then blocked with 1% (w/v) BSA dissolved in PBS (150 μl/well) and maintained at 37° C. for 60 min. After washing, serial dilutions of IgG1 or IgG4 in PBS containing 2% (w/v) not-fat dry milk (PBSM) were added to the plate (100 μl/well) and incubated for 90 min at 37° C. After washes, plates were incubated at 37° C. for 60 min with an anti-human Fc antibody HRP conjugated (Meridian) diluted 1:500 v/v in PBSM. Finally, the detection was performed after addition of 2,2′-azino-bis(3-ethylbenzthiazoline-6-sulphonic acid) (ABTS; Roche, 10102946001) as substrate. The absorbance values were read by a microplate reader (Bio-Rad Laboratories) at 405 nm after 45 min. In FIG. […] The absorbance of the mock sample is shown by the dotted line. The ELISA assay highlighted a higher affinity for the CEACAM1 antigen of the antibody belonging to the IgG1 subclass compared to the same antibody with the IgG4 (S228P) constant region. […]

[5] = molecular target: T1, CEACAM1 antigen (Diatheva); test: ELISA titration on coated CEACAM1; antibody purified after transient expression in HEK293T
Experimental: Purified antibodies were analysed for their reactivity against CEACAM1 antigen in ELISA titration assay as follow:
(§1) 96 wells microtiter plates (MAXISORB NUNC) were coated with 100 μl/well of CEACAM1 antigen (Diatheva) solution 1 μg/ml diluted in PBS pH 7.3 and incubated overnight (ON) at 37° C. Plates were washed five times with PBS added with 0.05% (v/v) Tween 20 pH 7.3 (PBST) (the same washing procedure was repeated after each incubation step during the assays) and then blocked with 1% (w/v) BSA dissolved in PBS (150 μl/well) and maintained at 37° C. for 60 min. After washing, serial dilutions of IgG1 or IgG4 in PBS containing 2% (w/v) not-fat dry milk (PBSM) were added to the plate (100 μl/well) and incubated for 90 min at 37° C. After washes, plates were incubated at 37° C. for 60 min with an anti-human Fc antibody HRP conjugated (Meridian) diluted 1:500 v/v in PBSM. Finally, the detection was performed after addition of 2,2′-azino-bis(3-ethylbenzthiazoline-6-sulphonic acid) (ABTS; Roche, 10102946001) as substrate. The absorbance values were read by a microplate reader (Bio-Rad Laboratories) at 405 nm after 45 min. In FIG. 4 are reported the results obtained with IgG1 (black line) and IgG4 (grey line) antibodies purified after transient expression in HEK293T cells. The absorbance of the mock sample is shown by the dotted line. […]

[6] = molecular target: T1, CEACAM1 antigen (Diatheva); test: ELISA titration on coated CEACAM1; antibody from stable clone 12
Experimental: as §1

Binder | EC50 [1] [µg/mL] | fold of EC50 against IgG4 [2] [fold] | fold of EC50 against IgG1 [3] [fold] | EC50 [4] [µg/mL] | EC50 [5] [µg/mL] | EC50 [6] [µg/mL]
B1 | 4.16 | ~2 | ~4 |  |  | 
B2 |  |  |  | 2.55 | 26.7 | 
B3 |  |  |  |  | 12.8 | 1.27
